Measurements taken from US20220048954A1.
Several values for one entry are separate records, joined by “and”; a condition that tells them apart may be missing. Equal entries are not always repeated.

Molecular target: mouse angiotensin converting enzyme 2 (ACE2) (mouse) (UniProt Q8R0I0)
Assay: cell-based or functional assay

Sequence of UniProt Q8R0I0 (Q8R0I0 18-805): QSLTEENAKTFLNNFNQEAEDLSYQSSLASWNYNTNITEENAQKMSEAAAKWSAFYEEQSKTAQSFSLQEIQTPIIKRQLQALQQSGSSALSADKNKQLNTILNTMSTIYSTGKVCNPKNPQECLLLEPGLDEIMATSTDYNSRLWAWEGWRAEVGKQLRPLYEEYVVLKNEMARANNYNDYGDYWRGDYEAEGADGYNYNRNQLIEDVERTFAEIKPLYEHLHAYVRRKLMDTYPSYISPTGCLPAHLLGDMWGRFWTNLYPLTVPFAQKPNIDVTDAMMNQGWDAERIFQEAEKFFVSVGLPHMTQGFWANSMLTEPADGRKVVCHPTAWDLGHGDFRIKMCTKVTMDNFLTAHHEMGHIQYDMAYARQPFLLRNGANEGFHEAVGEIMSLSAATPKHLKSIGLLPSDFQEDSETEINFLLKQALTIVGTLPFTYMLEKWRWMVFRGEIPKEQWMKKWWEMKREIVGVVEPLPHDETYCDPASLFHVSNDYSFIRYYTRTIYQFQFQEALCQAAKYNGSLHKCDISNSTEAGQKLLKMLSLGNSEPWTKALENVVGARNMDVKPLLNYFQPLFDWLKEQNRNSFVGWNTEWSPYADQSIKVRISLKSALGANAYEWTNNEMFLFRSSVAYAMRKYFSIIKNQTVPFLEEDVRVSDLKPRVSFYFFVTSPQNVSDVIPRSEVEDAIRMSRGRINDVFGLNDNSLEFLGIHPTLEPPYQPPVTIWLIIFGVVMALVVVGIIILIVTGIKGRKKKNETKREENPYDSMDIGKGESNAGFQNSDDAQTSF

Question: For “SARS-CoV2 Spike protein, WT (614D), with C-terminal HA tag (from UniProt P0DTC2 14-1273)”, which cell fusion assay, FACS red/green double positive events (x over the baseline without Spike) is on record?
Answer: 17 and 18
